Reference: paper PMC4428900
Where two headings read alike, the source gives them in different places.

What was measured:
[1] = target: NS4B (genotype 2a) W204A fused to mCherry (Hepatitis C virus genotype 2a); assay: FRET or BRET
[2] = target: NS4B (genotype 2a) fused to mCherry (Hepatitis C virus genotype 2a) (UniProt Q99IB8); assay: FRET or BRET
[3] = target: NS4B (genotype 2a) fused to mCherry (Hepatitis C virus genotype 2a) (UniProt Q99IB8); assay: FRET or BRET; remark: listed apart in the source
[4] = target: NS4B (genotype 1b) fused to mCherry (Hepatitis C virus genotype 1b) (UniProt Q9WMX2); assay: FRET or BRET
[5] = target: NS4B (genotype 1b) fused to GFP (Hepatitis C virus genotype 1b) (UniProt Q9WMX2); assay: FRET or BRET
[6] = target: pBIND-NS4B C-terminal domain W204A (Hepatitis C virus genotype 2a); assay: two-hybrid

**Q.** Which mean FRET efficiency (Ef) [1] does the source give for “NS5A (genotype 2a) fused to GFP (from UniProt Q99IB8 1977-2442) (natural protein)” here?
**A.** The mean FRET efficiency (Ef) was 1.3.

**Q.** What about the mean FRET efficiency (Ef) [2] of the same substance?
**A.** Its mean FRET efficiency (Ef) is 6.5.

**Q.** What about the mean FRET efficiency (EF) [3] of the same substance?
**A.** The mean FRET efficiency (EF) was 5.5.

**Q.** What about the mean FRET efficiency (Ef) [3] of the same substance?
**A.** The mean FRET efficiency (Ef) was 9.6.

**Q.** And the mean FRET efficiency (EF) [4]?
**A.** The mean FRET efficiency (EF) was 6.5.

**Q.** For “NS4B (genotype 1b) fused to GFP (from UniProt Q9WMX2 1712-1972) (natural protein)”, which mean FRET efficiency (EF) [4] is on record?
**A.** Its mean FRET efficiency (EF) is 6.6.

**Q.** For “NS5A (genotype 1b) fused to mCherry (from UniProt Q9WMX2 1973-2419) (natural protein)”, which mean FRET efficiency (EF) [5] is on record?
**A.** The mean FRET efficiency (EF) was 6.

**Q.** “pACT-NS5A (full length NS5A of genotype 2a fused to VP16) (from UniProt Q99IB8 1977-2442) (natural protein)” was tested. Which reduction in luciferase activity compared to the wild type [6] did it give?
**A.** The reduction in luciferase activity compared to the wild type was 30%.

**Q.** Which mean FRET efficiency (Ef) [3] does the source give for “NS5A (genotype 2a) a.a. 1–352 fused to GFP (domain or fragment)” here?
**A.** The mean FRET efficiency (Ef) was 9.3.
